Consider 1 substance from paper PMC12188319.

In this test the target is FcγRIIIa (UniProt P08637). Description: SPR.
Sequence of UniProt P08637 (P08637 17-254): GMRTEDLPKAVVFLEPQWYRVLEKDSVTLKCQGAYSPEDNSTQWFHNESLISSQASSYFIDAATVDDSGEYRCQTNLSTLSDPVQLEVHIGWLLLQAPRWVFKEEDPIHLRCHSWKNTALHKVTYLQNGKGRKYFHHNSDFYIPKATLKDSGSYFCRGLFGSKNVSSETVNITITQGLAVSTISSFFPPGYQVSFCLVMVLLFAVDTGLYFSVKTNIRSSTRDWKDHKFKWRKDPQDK

With JSKN003 (bispecific antibody), the Kd was 150 nM.
